Assay results: paper PMC8433370, “Low sample volume origami-paper-based graphene-modified aptasensors for label-free electrochemical detection of cancer biomarker-EGFR”

Molecular target: EGFR antigen (epidermal growth factor receptor) (UniProt P00533 25-645)
Test: electrochemical aptasensor (CV/DPV); aptamer on NH2-GO/THI/AuNP paper electrode; linear range 0.05-200 ng/mL, LOD 5 pg/mL (not a Kd); Aptamer on NH2-GO/THI/AuNP electrode, mercaptoethanol block, wash in TE (10 mM Tris-HCl, 1 mM EDTA; TE stock pH 8.0); binding buffer and temperature not given in the material
Conditions: protein: commercial

B1: anti-EGFR aptamer (ssDNA)
DNA: TACCAGTGCGATGCTCAGTGCCGTTTCTTCTCTTTCGCTTTTTTTGCTTTTGAGCATGCTGACGCATTCGGTTGAC
modifications: 5'-thiol
binding result: binds
